Test results taken from patent publication US20240352434, “COMPOSITIONS COMPRISING A VARIANT CAS12I3 POLYPEPTIDE AND USES THEREOF” (Arbor Biotechnologies, Inc., published 2024).
Where a chain is given by its changes, count along the chain named.

B1: EMX1_T5 crRNA ; EMX1_T5 target (ssRNA ; dsDNA)
RNA: AUAGUGUGUCCUUAGUUGACAUUAUUAUUCCCAUAGGGAAGG
DNA 1: TATTATTCCCATAGGGAAGG
DNA 2: CCTTCCCTATGGGAATAATA
B2: VEGFA_T2 crRNA ; VEGFA_T2 target (ssRNA ; dsDNA)
RNA: AUAGUGUGUCCUUAGUUGACAUAAUCCUCCACCAGUCAUGGU
DNA 1: AATCCTCCACCAGTCATGGT
DNA 2: ACCATGACTGGTGGAGGATT
B3: AAVS1_T3 crRNA ; AAVS1_T3 target (ssRNA ; dsDNA)
RNA: AUAGUGUGUCCUUAGUUGACAUGUGAGAAUGGUGCGUCCUAG
DNA 1: GTGAGAATGGTGCGTCCTAG
DNA 2: CTAGGACGCACCATTCTCAC

Target: T1, Cas12i3 S801R (Unidentified, S801R)
T1 chain: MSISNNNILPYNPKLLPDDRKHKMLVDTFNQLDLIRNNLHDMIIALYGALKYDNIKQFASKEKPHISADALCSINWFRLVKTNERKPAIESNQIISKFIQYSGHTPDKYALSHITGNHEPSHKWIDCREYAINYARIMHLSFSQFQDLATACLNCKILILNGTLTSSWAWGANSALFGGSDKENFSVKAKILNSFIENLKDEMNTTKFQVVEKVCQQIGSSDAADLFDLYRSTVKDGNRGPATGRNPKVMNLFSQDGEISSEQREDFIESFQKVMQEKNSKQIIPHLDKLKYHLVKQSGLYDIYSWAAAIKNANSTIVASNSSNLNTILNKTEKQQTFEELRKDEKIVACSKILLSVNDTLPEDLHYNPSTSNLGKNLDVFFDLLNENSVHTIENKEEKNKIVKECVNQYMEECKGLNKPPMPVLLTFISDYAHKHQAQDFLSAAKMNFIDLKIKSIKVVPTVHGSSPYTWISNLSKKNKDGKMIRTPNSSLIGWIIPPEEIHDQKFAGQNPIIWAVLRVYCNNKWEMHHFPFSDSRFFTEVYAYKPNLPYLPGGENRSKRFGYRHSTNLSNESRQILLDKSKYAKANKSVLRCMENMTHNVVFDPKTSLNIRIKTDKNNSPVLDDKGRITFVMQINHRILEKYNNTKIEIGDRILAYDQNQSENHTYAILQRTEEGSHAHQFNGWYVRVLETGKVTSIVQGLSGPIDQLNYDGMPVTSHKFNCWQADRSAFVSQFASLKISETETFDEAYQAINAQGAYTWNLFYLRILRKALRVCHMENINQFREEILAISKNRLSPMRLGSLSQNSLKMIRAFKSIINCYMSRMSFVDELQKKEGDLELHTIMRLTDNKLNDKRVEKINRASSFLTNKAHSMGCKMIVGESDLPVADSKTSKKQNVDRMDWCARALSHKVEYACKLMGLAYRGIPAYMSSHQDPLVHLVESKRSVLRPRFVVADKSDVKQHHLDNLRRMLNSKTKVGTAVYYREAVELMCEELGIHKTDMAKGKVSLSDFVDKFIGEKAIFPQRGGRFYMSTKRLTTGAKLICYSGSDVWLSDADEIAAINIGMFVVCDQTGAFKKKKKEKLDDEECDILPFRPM
Experiment: cell_activity; fold change in % indels, HEK293T; PAM not stated in example
Experimental: (§1) Approximately 16 hours prior to transfection, 100 μl of 25,000 HEK293T cells in DMEM/10% FBS+Pen/Strep were plated into each well of a 96-well plate. On the day of transfection, the cells were 70-90% confluent. For each well to be transfected, a mixture of 0.5 μl of Lipofectamine 2000 and 9.5 μl of Opti-MEM was prepared and then incubated at room temperature for 5-20 minutes (Solution 1). […] In the case of negative controls, the crRNA was not included in Solution 2. The solution 1 and solution 2 mixtures were mixed by pipetting up and down and then incubated at room temperature for 25 minutes. Following incubation, 20 μL of the Solution 1 and Solution 2 mixture were added dropwise to each well of a 96 well plate containing the cells. 72 hours post transfection, cells are trypsinized by adding 10 μL of TrypLE to the center of each well and incubated for approximately 5 minutes. 100 μL of D10 media was then added to each well and mixed to resuspend cells. The cells were then spun down at 500 g for 10 minutes, and the supernatant was discarded. QuickExtract buffer was added to ⅕ the amount of the original cell suspension volume. Cells were incubated at 65° C. for 15 minutes, 68° C. for 15 minutes, and 98° C. for 10 minutes.
(§2) Samples for Next Generation Sequencing were prepared by two rounds of PCR. The first round (PCR1) was used to amplify specific genomic regions depending on the target. PCR1 products were purified by column purification. Round 2 PCR (PCR2) was done to add Illumina adapters and indexes. Reactions were then pooled and purified by column purification. Sequencing runs were done with a 150 cycle NextSeq v2.5 mid or high output kit.

Row | Binder | binding signal
1 | B1 | 1.44 fold of wild-type
2 | B2 | 1.74 fold of wild-type
3 | B3 | 2.2 fold of wild-type

Target: T2, Cas12i3 K583R (Unidentified, K583R)
T2 chain: T1 chain with K583R, R801S
Experiment: as above
Experimental: as §1, §2

Row | Binder | binding signal
4 | B1 | 1.3 fold of wild-type
5 | B2 | 1.74 fold of wild-type
6 | B3 | 1.81 fold of wild-type
